# Laboratory results from patent US20120222143.
# Columns and labels:
# Assay in all cases: cell_activity
# [1] = system: ACAN12 TALEN pair (left and right, FokI homodimer) (synthetic construct); details: fibroblasts, day 3 SURVEYOR
# [2] = system: DMDE6 TALEN pair (left and right) (synthetic construct); details: pig fibroblasts, day 3, co-transfected with DMDE7.1
# [3] = system: DMDE7.1 TALEN pair (left and right, FokI homodimer) (synthetic construct); details: fibroblasts, day 3 SURVEYOR
# [4] = system: btGDF83.1 TALEN pair (left and right) (synthetic construct); details: bovine fibroblasts, SURVEYOR; active at 30 and 37 C
# [5] = system: p65 (RELA) TALEN pair (left and right) (synthetic construct); details: porcine zygotes, 10 ng/ul mRNA each TALEN, 16 of 56
substance,measurement,setting,value
ACAN12 target locus,activity (% chromosomes cleaved (NHEJ)),[1],25
DMD exon 6 target locus,activity,[2],24 % NHEJ
DMD exon 7 target locus,activity (% chromosomes cleaved (NHEJ)),[3],38
GDF8 exon 3 target locus,activity (% chromosomes cleaved (NHEJ)),[4],< 16
p65 target locus,activity (% embryos with indels),[5],29
